# Laboratory results as given in patent US20160367515A1, “Improved delivery of poorly water soluble drugs with aphafetoprotein stabilized with metal ions” (Oy Safemed Ltd., priority 2013, published 2016).
# B1: Zn-rhAFP: complex of rhAFP with Zn ions, prepared with 4-fold molar excess of ZnCl2 followed by dialysis (protein, UniProt P02771 19-609, looked up)
# Alpha-fetoprotein: RTLHRNEYGIASILDSYQCTAEISLADLATIFFAQFVQEATYKEVSKMVKDALTAIEKPTGDEQSSGCLENQLPAFLEELCHEKEILEKYGHSDCCSQSEEGRHNCFLAHKKPTPASIPLFQVPEPVTSCEAYEEDRETFMNKFIYEIARRHPFLYAPTILLWAARYDKIIPSCCKAENAVECFQTKAATVTKELRESSLLNQHACAVMKNFGTRTFQAITVTKLSQKFTKVNFTEIQKLVLDVAHVHEHCCRGDVLDCLQDGEKIMSYICSQQDTLSNKITECCKLTTLERGQCIIHAENDEKPEGLSPNLNRFLGDRDFNQFSSGEKNIFLASFVHEYSRRHPQLAVSVILRVAKGYQELLEKCFQTENPLECQDKGEEELQKYIQESQALAKRSCGLFQKLGEYYLQNAFLVAYTKKAPQLTSSELMAITRKMAATAATCCQLSEDKLLACGEGAADIIIGHLCIRHEMTPVNPGVGQCCTSSYANRRPCFSSLVVDETYVPPAFSDDKFIFHKDLCQAQGVALQTMKQEFLINLVKQKPQITEEQLEAVIADFSGLLEKCCQGQEQEVCFAEEGQKLISKTRAALGV
# modifications: zinc ion complex
# B2: eAFP: fetal serum human AFP isolated from human cord serum (protein, UniProt P02771 19-609, looked up)
# Alpha-fetoprotein: B1 Alpha-fetoprotein
# B3: rhAFP: glycosylated wild-type recombinant human alpha-fetoprotein secreted by yeast Saccharomyces cerevisiae (protein, UniProt P02771 19-609, looked up)
# Alpha-fetoprotein: B1 Alpha-fetoprotein
# modifications: expressed in yeast
# notes: glycosylated wild-type recombinant human alpha-fetoprotein secreted by yeast Saccharomyces cerevisiae
# Test system: mammary carcinoma cell line MCF-7
# Experiment: MTS cell viability assay, mammary carcinoma MCF-7 cells
# Assay type: cell-based, human
# Settings: Example 3, MCF-7, 48 h, protein without drug, read-out: IC50, tumor suppressive effect of AFP species standalone
# Description: Effect of binding of Zn ions to rhAFP and sugar-free rhAFPo species was tested by measuring of their dose-dependent tumor-suppressive effect for mammary carcinoma cell line MCF-7 in vitro, as it was earlier described for natural embryonic eAFP (Dudich et al., Eur. J. Biochem. 1999; 266: 750-761). MCF-7 cells were incubated with various doses of rhAFP (rhAFPo), Zn-rhAFP (Zn-rhAFPo) or with natural embryonic eAFP for 48 h, and thereafter their viability was assessed by the colorimetric MTS assay (FIG. 1A).
# Cell viability was assessed by the Promega CellTiter 96 AQueous Non-Radioactive Cell Proliferation MTS assay (Promega, USA) according to manufacturer's instructions. Cells were incubated with various AFP samples for 48 h as described above, followed by incubation with MTS-test reagents and measuring of the light adsorption of the formasan, appeared in the lysed cell supernatants at 492 nm by using VICTOR-1420 multilabel counter (Wallac, Finland). Intact cell cultures incubated without additions were taken as a control. By such a way the quantity of viable cells capable to internalize MTS dye was determined. Results were expressed as the mean optical density (OD)±the standard error of the mean triplicate cultures. The extent of cell viability was calculated as an average OD in experimental wells after addition of testing compounds in relation to untreated control wells, that was taken as 100%
# To evaluate the efficacy of preparations rhAFP/Ptx and Zn-rhAFP/Ptx we compared the cytotoxic effect of Ptx alone or that in combination with rhAFP or Zn-rhAFP for taxol-resistant human hepatoma HepG2 cells, human breast carcinoma cells MCF-7, and rat glioma C6 cell lines in vitro. RhAFP or Zn-rhAFP were incubated with various doses of Ptx at 37° C. for 1 h to allow complex formation with molecular ratios rhAFP:Ptx 1:1; 1:3 or 1:5 and thereafter the mixtures were introduced into the cell culture for 48 hrs. Cytotoxicity was measured by MTS assay.
# Various doses of rhAFP/Ptx complexes were tested for their effectiveness for inhibition of human mammary carcinoma MCF-7, human hepatoma HepG2, and rat glioma C6 tumor cell growth in vitro. First, we optimized drug concentration and rhAFP amount to the extent that it would not generate an extensive cytotoxic effect alone. Then, the cells were seeded in 96-well plates at a density of 3×10^3/well in 100 μl of medium for 24 hrs to allow adherence. The next day, rhAFP or Zn-rhAFP combined with Ptx at the molecular ratios of 1:1; 1:3 or 1:5 were added into the each well. After 48 h of incubation MTS assays were performed to determine survival rate of the cells. All the experiments were repeated at least three times. The results were expressed as mean±standard error (SE).
# The coefficient of drug interaction (CDI) was calculated to analyze the effects of rhAFP and Ptx combinations. CDI was calculated by the equation: CDI=SRAFP/drug[…]/SRAFP×SRdrug, where SRAFP/drug is the average survival rate of combination group, and SRAFP or SRdrug are the average survival rates of the single agent groups. According to our evaluation, CDI values <1, =1 or >1 indicate that the combinations are synergistic, additive or antagonistic respectively.
# The values of Zn-rhAFP/Ptx or rhAFP/Ptx complex concentration, which inhibited the cell viability by 50% (IC50) when compared to untreated control, were calculated according to the Hill's equation (sigmoid model of concentration-response curve) from the curves of dependence of the relative percentage of viable cells from AFP concentration expressed as mean values from three independent experiments±SD.
# In order to confirm the hypothesis that the combination of Zn-rhAFP and various low water-soluble chemotherapeutic agents would reveal increased anti-tumor efficacy, different cytotoxic compounds were tested in combination with Zn-rhAFP for their cell-killing effect in MCF-7 cells in vitro. […]
row,Molecule,IC50
1,B1,2.5 µM
2,B2,3 µM
3,B3,3.5 µM

# Same assay, conditions: Example 6, MCF-7, 48 h, protein without Ptx, read-out: cytostatic activity (IC50) standalone against MCF-7 cells
row,Molecule,IC50
1,B1,5.2 µM
2,B3,6.1 µM

# Same assay, conditions: MCF7 + Zn-rhAFP 1.4 μM (Zn:rhAFP 4:1) + drug, 48 h
row,Molecule,Coefficient for drug interaction (CDI)
1,"COc1cc([C@@H]2c3cc4c(cc3[C@@H](O[C@@H]3O[C@@H]5CO[C@@H](C)O[C@H]5[C@H](O)[C@H]3O)[C@H]3COC(=O)[C@H]23)OCO4)cc(OC)c1O [Etoposide, etoposide]",0.86
2,"N.N.[Cl][Pt][Cl] [Cisplatin, cisplatin]",0.93
3,"O=c1c(-c2ccc(O)cc2)coc2cc(O)cc(O)c12 [Genistein, genistein]",0.82
4,"CC(C)=CCC/C(C)=C/C=C/C(C)=C/C=C/C(C)=C/C=C/C=C(C)/C=C/C=C(C)/C=C/C=C(\C)CCC=C(C)C [Lycopene, lycopene]",0.71
5,"Oc1ccc(C=Cc2cc(O)cc(O)c2)cc1 [Resveratrol, resveratrol]",0.72
6,"COc1cc(/C=C/C(=O)CC(=O)/C=C/c2ccc(O)c(OC)c2)ccc1O [Curcumin, curcumin]",0.88
7,"COc1cccc2c1C(=O)c1c(O)c3c(c(O)c1C2=O)C[C@@](O)(C(=O)CO)C[C@@H]3O[C@H]1C[C@H](N)[C@H](O)[C@H](C)O1 [Doxorubicin, doxorubicin]",0.66

# Test system: NF-κB p65
# Experiment: Immunofluorescence of activated NF-κB p65 nuclear translocation in MCF-7 cells
# Assay type: cell-based, human
# Settings: MCF-7, 2 h treatment
# Description: The cells were incubated with paclitaxel (10 μM) with addition of Zn-rhAFP (3.0 μM) and/or curcumin (3.0 μM) for 2 h and then assessed for localization of p65 by immunocytochemistry. Activated […] (p65) was detected by treatment of the cells with phospho […] p65 rabbit polyclonal antibody (Cell signaling technologies, USA) followed by secondary goat anti-rabbit Ab-Alexa594 red (Molecular Probes, USA). Cells were visualized at magnification ×400 by fluorescent microscope Axioplan; Zeiss (Germany) equipped with corresponding color filter kits.
# The relative amount of p65 in the cytosol and nucleus of the cells was assessed by ImageJ software and was taken as 100% in the control (cytosol+nucleus). Total amount of activated p65 in control untreated cells was taken as 100%. The experimental data are represented as percentage of control±SD from three independent calculations in various observation fields.
# MCF-7 cells were seeded on the microscopic plates Lab-Tek™ Chamber Slides (Thermo Fisher Scientific-Nunc, Germany) and cultivated at 37° C. at 5% CO2 atmosphere for 48 h to allow cell adaptation to reach 80% confluence. To test effects of chemotherapeutic preparations on the activation and translocation of NF-κB, cells were treated for 2 h with Ptx (10 nM), curcumin (30 μM); Zn-rhAFP (1.4 μM), or their combination Zn-rhAFP/Ptx/Cur, after which they were fixed with 100% ice-cold acetone. Control cells were incubated without additions and their NF-κB content was taken as 100%. Activated NF-κB was detected by treatment of the cells with phospho NF-κB p65 rabbit polyclonal antibody (Cell signaling technologies, USA) followed by the secondary goat anti-rabbit antibodies Ab-Alexa594 (Molecular Probes, USA). Nuclei were visualized by staining with DAPI (Molecular probes, USA). Cells were visualized at magnification ×400 by fluorescent microscope Axioplan (Zeiss, Germany) equipped with corresponding color filter kits. Distribution throughout the cell of the activated p65 was assessed by the ImageJ software and was taken as 100% in the control samples (cytosol+nucleus).
row,Molecule,effect on activated p65 (RelA) in the cell nucleus
1,"COc1cc(/C=C/C(=O)CC(=O)/C=C/c2ccc(O)c(OC)c2)ccc1O [Curcumin, curcumin]",significant decrease of activated RelA in the cell nucleus
2,B1,significant decrease of activated RelA in the cell nucleus

# Test system: not listed separately
# Experiment: Adiabatic scanning microcalorimetry of heat denaturation
# Assay type: physicochemical
# Settings: protein 2.0 mg/ml in PBS pH 7.4
row,Molecule,ΔT1/2 (half width of the denaturation transition peak)
1,B1,5.9 °C
2,B2,5.8 °C
3,B3,7.0 °C

# Same assay, conditions: protein 2.0 mg/ml in PBS pH 7.4; Zn/rhAFP 4/1, Ptx/rhAFP 1/1, Cur/rhAFP 1:1; error about ±6%
row,Molecule,ΔH (denaturation enthalpy)
1,B1,716 kJ/mol
2,B2,790 kJ/mol
3,B3,694 kJ/mol

# Same assay, conditions: protein 2.0 mg/ml in PBS pH 7.4; error ±0.5° C.
row,Molecule,Tmax (denaturation transition temperature)
1,B1,74.3 °C
2,B2,80.2 °C
3,B3,71.9 °C

# Test system: normal CBA mice splenocytes
# Experiment: Unspecific toxicity against normal splenocytes, trypan blue staining
# Settings: 48 h, standalone protein
# Description: Zn-rhAFP was prepared in a molecular ratio Zn:rhAFP=4:1. Viable cells were visualized by trypan blue staining. The data are expressed as percentage of viable cells in experimental cell cultures relative to untreated control. Mean of three independent experiments is shown.
# Viable cells were visualized by trypan blue staining.
row,Molecule,dose-dependent stimulation of growth of the normal splenocytes
1,B1,40 % of control
2,B3,40 % of control
